The nature of this data set: soluble on expression in E. coli; label from the status in PepcDB or PDB records.
For “MGSDKIHHHHHHADILSCTVDGDILKAEPEIDNESVTLTVKSDADITNLAPVFTLTPGATITPASGSAFDFTTPRTYTVTSEDGHWTKTYTVRCIVSGVSTEYHFEHITMEPKNGRYQIFYDFTSNGDSVTWASGNAGFALTNNKLEPLDFPTMQDDNGYVGKCAKLVTRSTGSFGSGFGMPIAAGNLFIGTFDLLNAIPDARKGTRLGRPFDHVPTYLSGYYKYKAGESYKVNGEEVKGKKDQCDIYAIFYETDENVKYLDGFNGLTSPNLISVARISDQKETDEWTRFYIPFVAKPGKVIDKDKLAKGGYQLSIVFSSSLKGDVFEGAEGSTLWIDEVEIIQSGEN”, the “soluble on expression in E. coli” value is “not soluble”.
With “MKTFIWNSNYETGVAKVDDQHQCLVEIINEYSHLLANNTTTETDIELTLNKLIDYTKFHFKDEEQLMYSVGLDTRHITHHEKLHRDILDEISTLLSDQVTDKLSIARYILDLIIHWLVYHILGTDMNMAKLEHHHHHH” the entry was “not soluble”.
Then “MLRRGLSRPEPRLLSKRYLSSATGGGSAGTTEGGSSETTPLRPRPNALTDEIIRVDHAGELGADRIYAGQMAILGNGPLGKTIGHMWEQEKEHRKQFEQLIQQHRVRPTIMTPIWNVAGFVLGAGTALMGEKAAMACTVAVETVIVEHYNDQLRQIMEAPNPDKELLATITKFRDEEQEHHDTGIDHGAEQAPFYQAMTEVIKFGCKTAIAISKKILEHHHHHH”, with “not soluble”; and “MIEIKNVNKVFYQGSKEILALKDINLHIAKGTIFGVIGSSGAGKSTLIRCVNMLEAPSSGSIIVDGVDLTTLSKKQLVETRRNIGMIFQHFNLLSSRTVFDNVALPLELAGKDKSQITTKVTELLKLVGLADKHESYPSNLSGGQKQRVAIARALASDPSVLLCDEATSALDPATTQSILELLKEINRKLNITILLITHEMEVVKSICHEVAIIGGGELVEKGTVGDIFAHPKTELAHEFIRSTLDLSIPEDYQARLQPNRVEGSYPLVRMEFTGATVDAPLMSQISRKYNIDVSILSSDLDYAGGVKFGMMVAELFGNEQDDSAAIEYLREHNVKVEVLGYVL”, with “not soluble”; and “GPGSTGASLGMMWKDKLNAMTKEEFTRYKRAGVMETDRKEARDYLKRGDGKTGLSVSRGTAKLAWMEERGYVELTGRVVDLGCGRGGWSYYAASRPHVMDVRAYTLGVGGHEVPRITESYGWNIVKFKSRVDIHTLPVERTDVIMCDVGESSPKWSVESERTIKILELLEKWKVKNPSADFVVKVLCPYSVEVMERLSVMQRKWGGGLVRNPYSRNSTHEMYFTSRAGGNIIGAVTACTERLLGRMARRDGPVVVPELNLGTGTR”, with “soluble”.
Then “MFSPSTTTLFRFVECTEDQHALEILEILNDAIINSTALYDYKPRSKESMAAWFATKRQNNFPIIGAVNEVGQLLGFASWGSFRAFPAYKYTVEHSVYIHKDYRGLGLSKHLMNELIKRAVESEVHVMVGCIDATNVASIQLHQKLGFIHSGTIQQAGFKFGRWLDAAFYQLTLDTPLHPQDD”, with “soluble”; and “SNMEVDVFPDLNAPTVVVMTEATGMAPEEVERLVTFPVETAVNGATDVRRVRSSSTTGFSIVWVEFDWGTDIYRARQIVSEKLAVVGADLPDNVGKPTLGPQSSILGEVMIIGLTADSTSLQDLRTLADWTIRPRLLSIGGVAQVTVLGGDIKEYQILLNPERMKHYGITLAEVRAAVDQMNRNASGGVLYEYGNEYIICGLLSTNDAAALGKTLVKSLDDIPIMLESVAEVRVGNKAPKLGLASERGQSAVLVTITKQPATSTLELTERLDRSLADLQKALPSDVKVSTDIFRQERFIENSISNVRK”, with “not soluble”; and “MGSDKIHHHHHHMRIALDPYMYRHLSLGAMVDKTAELGYDYIELSPREDFMPFYKYPRVDRARIREFRKALSDAGVKLSSLLPLYHWAAPDEDLRIAAVRNWKRAIEVAVEMDCDLMNTEFSGQSDHALVCENQFMKSMDELMPHFEREGIKLDIQAHPYDFCERNNESVDIIRGLDRDWINYLYAAPHTFFYDDGVGDIASMLRYAGDRLTHLIIADTYNHRASSNLRYIVNPPGVTATVHQHLDIGQGEVNWEAFFSTLRDIKFDGIATVAVFAWEERADESSRFMLERVKSELLR”, with “not soluble”.
As to “MGKRLKSNARKSAVNKLVKKTDNRIKEEQRVIRTPKVDEQELKLVRAPKISSAMFMKYNTQLGPPFHVIVDTNFVNFAVKNRIDMFQGFMDCLFAKTIVYATDCVLAELEKVRRFKIALKVLKDPRVQRLKCEHKGTYADDCLVQRVTQHKCYIVATCDRDLKRRIRKIPGVPIMYIVNHRFSIERMPDAYGAPMN”, the “soluble on expression in E. coli” value is “not soluble”.
For the sequence “MTNPLNSTAANRSNQPSSDGISDGQITNEEAESLINKKNCSGHKLKEVTDSDTFSDNGKDDSDTKKRFHYHQDQRRMSLTSIVAVESPSSSNAPSRKTIDLGHGSDLIYIQRFLPFQQSWTFFDYLDKHIPWTRPTIRVFGRSCLQPRDTCYVASSGLTALVYSGYRPTSYSWDDFPPLKEILDAIYKVLPGSRFNSLLLNRYKGASDYVAWHADDEKIYGPTPEIASVSFGCERDFVLKKKKDEESSQGKTGDSGPAKKRLKRSSREDQQSLTLKHGSLLVMRGYTQRDWIHSVPKRAKAEGTRINLTFRLVL”, the “soluble on expression in E. coli” value was “not soluble”.
“MGSDKIHHHHHHMFLDDFHTVTDDRLCITAEQASRFAKCIAGDYNPIHDPDARRFCVPGDLLFALVMARFGLAQRMTFHFKGMVGDSVPLCFAQHGDTVSVTDHHGKVYLEVERGGDITHDAGVIEAFTRRYVAFSGRNFPHYLKPLMEEQGVMFNPQRPLVIYDSMGFSLSRLDVAEAGVAFTGATLDVTGKRGDALLQFQMTDADTVIGHGSKKLVVSGLREYDPPVMDAFVEQFMSLKAHSATTG”: the “soluble on expression in E. coli” value is recorded as “not soluble”.
With “MIEERFDAIVVGAGMAGNAAALTMAKRGLKVLQIERGEYPGSKNVQGAILYADMLEKLVPDFREDAPLERHLVEQRFWMMDGKSHTGLHHRSEDFNEEKPNRYTIIRAQFDKWLSSKAQEAGAIVLCETTVKELVQDAYGKVIGVITDREGGQVHADVVVLAEGVNGLLGTKAELRERPTPENVALAVKEMHFLPRETIEARFNLKGDEGVVIEAAGTISAGMTGMGFIYTNKESISIGIGCLVSDFQKTGETPYGLLERFKKHPSVAPLIEGSEVKEYAGHLIPEGGYNAIPQLYGDGWVVVGDAAQLNNAMHREGSNLAMTSGRIAAEAIFQVKSRKDPMTKENLALYKKMLDDSFVIKDLKKYKDMPDLLHIRSQNFFLTYPQLVNKALQNFVRVDGTPKIEKEKTTIKSFVSARSWGGLFGDAFRFARAWR” the entry was “not soluble”.
Regarding “MGSDKIHHHHHHMKNLFLYCRAGYEKDCAAEIQQRAAELGIGGFVKANRDDAYVVFQGFSPDDGDRLAKELPLDSLIFARQMFACGDLLDDFSPEDRVTPIAESLTEVERAGELRVETPDTNEAKELSAFCRKFTVPLRQALKKRGVLLDKESSRRPIVHVCFVAPNKAFTGYSLSNNSSPHFMGIPRLKFPADAPSRSTLKLDEAFIHFIPREEHETRLRSGLNAVDLGACPGGWTYQLVRRGMMVHAIDNGPMNHDLMETGQVTHHRADGFKFEPARRNIYWLVCDMVEKPARVAELMEYWAIQGWFKEAIFNLKLPMKSRYKEVSQILANMHAILKENGIHEFHLACKHLYHDRDEVTVHLWLRPSSPWI”, the “soluble on expression in E. coli” value is on record as “not soluble”.
With “MSLMRKNETREFLIEDIEFPAVGVAFYNDKKVYIKGAVPGQKVLARVSKVRREKIEAKLKEIVTNIPGAAQPKCPDFGVCGGCVHQFLPYEKQLEFKEREVLKLFKDAKIEGFEYLGILGSPEKEEYRNKMEYTFGDFVKGGELTLGMHAKDSGFSIVNTDKCNIVDEDFRIILKTVVEYFRKKDLPIYKVMQHVGYLRNLVVRKAKNTGEILIALVTTSQVDFDLTELTEILKSINYLGELKGILHVINDGLADMVRGDKIVTLFGQDYITERILDLKFKMSLFSFFQTNSKGAEKLYSEVLEFLGDVSNKTVFDLYCGTGTIGQLASKKAEKVIGIELIEEAVEAAKENTKLNNISNCSFIAGDVAKVITEIKEKPDTIILDPPRPGVSPNAMKYVIKFNAPEIVYVSCNPKTLVNDLGVLRAYGYEVEKVKIVDMFPGTGHVETVVLLQRKIIEGHHHHHH” the entry was “soluble”; with “MKIQFNRFLTRSLLTAALTGAASMAAAATMEVYKSPTCGCCAKWVDHMRDNGFTVNIHDIGNDEARAEAGILPELGSCHTALVNGYAIEGHVPADDIKQLLKERPRAVGLSAPGMPHGSPGMETGRVDSYNVLLIRKPGDKRSATEIYNRYGPGKSGAAEKTSENSTTDSVLRLK”, “not soluble”.
Then “MGSDKIHHHHHHMISTEYRPKSLLEEFVVCFYFNKSDNFEYADYANPTTNQEMFFNLGDDFELKNSIGQVTSQRSWISGLQSKSLPIKCSGRHITAGVIFKPWGLYAAFGINAKELANKTIYSKWLCDLSNELDNSEFSESQFFDLMEFNLLKSIKRSKMTKVMQKIVNEIEQENVFTLSEKLNRSKKTIIESFNKMIGLSPHKFYTLKCICETITLLQNNPTIKLTELAYNQGFYDQAHFIRVFKEHTGLTPKEFRNSIMKR”, with “not soluble”; and “MGSDKIHHHHHHMTRSVKRVAAIHDLSGFGRASLTAIIPIMSYMGIQVCPMPTAVLSTHTTDFHEYSFVDLTDSMQDFMNHWKKINLEFDAIYTGFLGSPRQVKIISDFVKEFSSDSTLVLIDPVMGDEGELYQTMNSEIVRSMRELIKSADIITPNFTEAAYLLDKDYNLELNEETIKEWILELANMGPDIVIMTSVPENKDKSTISVIAYEKKLNKFWKITSEYIPVSYPGTGDSFASAILGRILKGDNLPQAVGRGMQFITSAIKESYGFDYPTREGILIEKSLEVLNLPFMNGNYKLI”, with “not soluble”.
With “MHHHHHHSSGVDLGTENLYFQSMKQYEHVTRDLNPEDFWEIIGELGDGAFGKVYKAQNKETSVLAAAKVIDTKSEEELEDYMVEIDILASCDHPNIVKLLDAFYYENNLWILIEFCAGGAVDAVMLELERPLTESQIQVVCKQTLDALNYLHDNKIIHRDLKAGNILFTLDGDIKLADFGVSAKNTRTIQRRDSFIGTPYWMAPEVVMCETSKDRPYDYKADVWSLGITLIEMAEIEPPHHELNPMRVLLKIAKSEPPTLAQPSRWSSNFKDFLKKCLEKNVDARWTTSQLLQHPFVTVDSNKPIRELIAEAKAEVTEEVEDGKE” the entry was “soluble”.
On to “MGHHHHHHSHIHRIDSTEVIYQPRRKRAKLIGKYLMGDLLGEGSYGKVKEVLDSETLCRRAVKILKKKKLRRIPNGEANVKKEIQLLRRLRHKNVIQLVDVLYNEEKQKMYMVMEYCVCGMQEMLDSVPEKRFPVCQAHGYFCQLIDGLEYLHSQGIVHK”, for which the “soluble on expression in E. coli” value was “soluble”.

Values taken from the DeepSol protein solubility set.
